From US20110251266

Target: beta-NGF (nerve growth factor) (Homo sapiens) (UniProt P01138)
Experiment: cell_activity
Details: as SEQ30(6); 100 nM aptamer; parent 92.7%

beta-NGF (nerve growth factor) (Homo sapiens), sequence (P01138 122-241): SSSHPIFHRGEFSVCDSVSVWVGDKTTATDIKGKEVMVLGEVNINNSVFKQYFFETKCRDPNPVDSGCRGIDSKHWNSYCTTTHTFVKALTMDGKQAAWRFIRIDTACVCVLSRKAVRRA

Sequence | activity [% inhibition]
GGGAUAAAAAUAGAGUUUGAUAAACACCUGUAUUAAAACCC [SEQ30(6) G20A] | 96.1
GGGAUAAAAAUAGAGUUUGAUAAACACCUGUAUUAAAACCC [SEQ30(6) G23A] | 91.2
